Results published in the RNAGym collection of RNA variant scans (doi:10.1073/pnas.2313332121).
This sample holds only a part of the variants without activity.

B1: TPR 5TU (parent)
chain: GGAUCUUCUCGAUCUAACAAAAAAGACAAAUCUGCCACAAAGCUUGAGAGCAUCUUCGGAUGCAGAGGCGGCAGCCUUCGGUGGCGCGAUAGCGCCAACGUUCUCAACUAUGACACGCAAAACGCGUGCUCCGUUGAAUGGAGUUUAUCAUG

Variants of: B1
Assay: polymerase ribozyme fitness, log enrichment relative to wild type (log ratio); higher = more active; in vitro selection for triplet polymerase activity
Summary of the method: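 In triplicate, a single round of in vitro selection was run on each mutant library, PCR-built and transcribed, covering one subunit of a heterodimeric triplet polymerase ribozyme. Frozen incubation at −7 °C followed annealing with a biotinylated primer, partner subunit and triplets, and extended constructs were then gel-excised, streptavidin-captured and taken through RT-PCR. Fitness is the logarithm of genotype enrichment over wild-type enrichment, from inverse-variance-weighted replicate averages of Illumina-sequenced inputs and outputs. […] only genotypes with ≥10 input reads and ≥1 read per output were kept.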

| Variant | polymerase ribozyme fitness (log ratio) |
| --- | --- |
| GGAUCUUCUCGAUCUAACAAAAAAGACAAAUCUGCCACAAAGCUUGAGAGCAUCUUCGCAUGCAGAGGCGGCAGCCUUCGGUGGCGCGAUAGUGCCAACGUUCUCAACUAUGACAUGCAAAACGCGUGCUCCGUGGAAUGGAGUUUAUCAUG [G59C C93U C116U U135G] | -3.78 |
| GGAUCUUCUCGAUCUAACAAAAAAGACAAAUCUGCCACAAAGCUUGAGAGCAUCUUCGCAUGCAGAGGCGGCAGCCUUCGGUGGCGAGAUAGCGCCAACGUUCUCAACAAUGACACGCAAAACGCGUGCUCCCUUGAAUGGAGUUUAUCAUG [G59C C87A U109A G133C] | ≤ -4.2 |
| GGAUCUUCUCGAUCUAACAAAAAAGACAAAUCUGCCACAAAGCUUGAGAGCAUCUUCGCAUGCAGAGCCUGCAGCCUUCGGUGGCGCGAUAGCGCCAACGUUCUCAACUAUGACACGCAAAACGCGUGCUCCGUUGAAUUGAGUUUAUCAUG [G59C G68C G70U G140U] | ≤ -4.2 |
| GGAUCUUCUCGAUCUAACAAAAAAGACAAAUCUGCCACAAAGCUUGAGAGCAUCUUCGCAUGCAGAGGCGGCAGCCUUCAGUGGCGCGAUAGAGCCAACGUUCUCAACUAUGACACGCAAAACGCGUGCUCCGUUGAAUGGAGUUUAUCAUG [G59C G80A C93A] | -3.86 |
| GGAUCUUCUCGAUCUAACAAAAAAGACAAAUCUGCCACAAAGCUUGAGAGCAUCUUCGCAUGCAGAGGCGGCAGCCUUCGGUGGCGCGAUAGCGUCAACGUUCUCAACUAUGACACGCAAAACGCGUGCUCCGUUGAAUGGAGUUUAUCAUG [G59C C95U] | 0.0454 |
| GGAUCUUCUCGAUCUAACAAAAAAGACAAAUCUGCCACAAAGCUUGAGAGCAUCUUCGCAUGCAGAGGCGGCAGCCUUCGGUGGCGCGAUAGCGACAACGUUCUCAACUAUGACACGCAAAACGCGUGCUCCGUUGAAUGGAGUUUAUCAUG [G59C C95A] | -0.188 |
| GGAUCUUCUCGAUCUAACAAAAAAGACAAAUCUGCCACAAAGCUUGAGAGCAUCUUCGCAUGCAGAGGCGGCAGCCUUCGGUGGCGCGAUAGCGCCAAGGUUCUCAACUAUGACACGCAAAACGCGUGCUCCGUUGAAUGUAGUUUAUCAUG [G59C C99G G141U] | -1.13 |
| GGAUCUUCUCGAUCUAACAAAAAAGACAAAUCUGCCACAAAGCUUGAGAGCAUCUUCGCAUGCAGAGGCGGCAGCCUUCGGUGGCGCGAUAGCGCUAACGUUCUCAACUAUGACACGCAAAACGCGUGCUCCGUUGAAUGGAGUUAAUCAUG [G59C C96U U146A] | 0.268 |
| GGAUCUUCUCGAUCUAACAAAAAAGACAAAUCUGCCACAAAGCUUGAGAGCAUCUUCGCAUGCAGAGGCGGCAGCCUUCGCUGCCGCGAUAGCGCCAACGUUCUCAACUAUGACACGCAAAACGCGUGCUCCGUUGAAUGGAGUUUAUCAUG [G59C G81C G84C] | ≤ -4.2 |
| GGAUCUUCUCGAUCUAACAAAAAAGACAAAUCUGCCACAAAGCUUGAGAGCAUCUUCGCAUGCAGAGGCGGCAGCCUUCGAUGGCGCGAUAGCGCCAACGUUCUCAACUAUGACACGCAAAACGCGUGCUCCGUUGAAUGGAGUUUAUCAUG [G59C G81A] | -2.07 |
| GGAUCUUCUCGAUCUAACAAAAAAGACAAAUCUGCCACAAAGCUUGAGAGCAUCUUCGCAUACAGAGGCGGCAGCCUUCGGUGGCGCGAUAGCGCCAACGUUCUCAACUAUGACACGCAAAUCGCGUGCUCCGGUGAAUGGAGUUUAUCAUG [G59C G62A A122U U134G] | -3.13 |
| GGAUCUUCUCGAUCUAACAAAAAAGACAAAUCUGCCACAAAGCUUGAGAGCAUCUUCGCAUGCAGAGGCGGCAGCCUUCGGUGGCGCGAUAGCGCCAACGUUCUCAACUAUGAUACGCAAAACGCGUACUCCGUUGAAUGGUGUUUAUCAUG [G59C C114U G128A A142U] | -2.5 |
| GGAUCUUCUCGAUCUAACAAAAAAGACAAAUCUGCCACAAAGCUUGAGAGCAUCUUCGCAUGCAGAGGCGGCAGCCUUCGGUGGCGCGAUAGCGUCAACGUUCUCAACUGUGACAAGCAAAACGCGUGCUCCGUUGAAUGGAGUUUAUCAUG [G59C C95U A110G C116A] | -3.2 |
| GGAUCUUCUCGAUCUAACAAAAAAGACAAAUCUGCCACAAAGCUUGAGAGCAUCUUCGCAUGCAGAGGCGACAGCCUUCGGUGGCGCGAUAGCGCCAACGUUCUCAACUAUGACGCGCAAAACGCGUGCUCCGUUGAAUGGAGUUUAUCAUG [G59C G71A A115G] | -4.09 |
| GGAUCUUCUCGAUCUAACAAAAAAGACAAAUCUGCCACAAAGCUUGAGAGCAUCUUCGCAUGCAGAGGCGGCAGCCUUCGGUGGCGCGAUAGCGACAAGGUUCUCAACUAUGACACGCAAAACGCGUGCUCCGUUGAAUGGAGUUUAUCAUG [G59C C95A C99G] | ≤ -4.2 |
| GGAUCUUCUCGAUCUAACAAAAAAGACAAAUCUGCCACAAAGCUUGAGAGCAUCUUCGCAUGCAGAGGCGGCAGCCUUCGGUGGCGCGAUAGAGACAACGUUCUCAACUAUGACACGCAAAACGCGUGCUCCGUUGAAUGGAGUUUAUCAUG [G59C C93A C95A] | -4.05 |
| GGAUCUUCUCGAUCUAACAAAAAAGACAAAUCUGCCACAAAGCUUGAGAGCAUCUUCGCAUGCAGAAGCGGCAGCCUUCGGUGGAGCGAUAGCGCCAACGUUCUCAACUAUUACACGCAAAACGCGUGCUCCGUUGAAUGGAGUUUAUCAUG [G59C G67A C85A G112U] | ≤ -4.2 |
| GGAUCUUCUCGAUCUAACAAAAAAGACAAAUCUGCCACAAAGCUUGAGAGCAUCUUCGCAUGCAGAGGCGGCAACCUUCCGUGGCGCGAUAGCGCCAACGUUCUCAACUAUGACACGCAAAACGCGGGCUCCGUUGAAUGGGGUUUAUCAUG [G59C G74A G80C U127G A142G] | ≤ -4.2 |
| GGAUCUUCUCGAUCUAACAAAAAAGACAAAUCUGCCACAAAGCUUGAGAGCAUCUUCGCAUGCAGAGGCGGCAGCCUUCGGUGGCGCGAUAGUGCCAACGUACUCAACUAUGACACGCAAAACGCGUGCUCCGUUGGAUGGAGUUUAUCAUG [G59C C93U U102A A137G] | -3.95 |
